target: HLA-A*0201 (human); experiment: competition with 125I-labelled standard peptide for purified HLA, gel filtration; settings: not given

Going from PLILSRIV (modifications not checked) [PSA 15 PLILSRIV] to PIPVHTVPL (modifications not checked) [PAP 140 …], the binding affinity ratio (IC50 of standard peptide / IC50 of test peptide) rises from 0.0001 to 0.0002.

Compared with PLMYSLVHNL (modifications not checked) [PSM 468 …], PLERFAELV (modifications not checked) [PAP 352 …] is lower in binding affinity ratio (IC50 of standard peptide / IC50 of test peptide): 0.0008 for the first, 0.0001 for the second.

First: PLVCNGVL (modifications not checked) [Kallikrein 216 PLVGNGVL]
Second: PAELTDAVKV (modifications not checked) [PSA 125 …]
The binding affinity ratio (IC50 of standard peptide / IC50 of test peptide) of the first is lower: 0.0001 for the first, 0.0002 for the second.

Compared with PIDTFPTDPI (modifications not checked) [PAP 49 …], PLVCNGVL (modifications not checked) [PSA 212 PLVGNGVL] is lower in binding affinity ratio (IC50 of standard peptide / IC50 of test peptide): 0.0002 for the first, 0.0001 for the second.

Compared with PIGYYDAQKL (modifications not checked) [PSM 296 …], PLSEDQLLYL (modifications not checked) [PAP 147 …] is higher in binding affinity ratio (IC50 of standard peptide / IC50 of test peptide): 0.0001 for the first, 0.0006 for the second.

NVIGTLRGAV (modifications not checked) [PSM 357 …] and PADYFAPGV (modifications not checked) [PSM 231 …] are the same in binding affinity ratio (IC50 of standard peptide / IC50 of test peptide): 0.0001 for the first, 0.0001 for the second.

YIRKRYRKFL (modifications not checked) [PAP 84 peptide …] and YARTEDFFKL (modifications not checked) [PSM 179 peptide …] are the same in binding affinity ratio (IC50 of the standard peptide / IC50 of the test peptide): 0.0002 for the first, 0.0002 for the second.

same assay, conditions: remark: other sources report otherwise

DLMLLRLSEPV (modifications not checked) [peptide 1419.13 (PSA.116.V11 / HuK2.120.V11)] showed an IC50 of 50 nM.

same assay, conditions: remark: other sources report otherwise; scale: ratio

Work on KVTEFMLCAGL (modifications not checked) [… (Kallikrein, position 191, 11 amino acids)] yielded a binding affinity ratio of 0.001.

same assay, conditions: scale: ratio

Compared with LAGAKGVIL (modifications not checked) [… (PSM, position 219, 9 amino acids)], KVVHYRKWI (modifications not checked) [… (PSA, position 241, 9 amino acids)] is lower in binding affinity ratio: 0.0002 for the first, 0.0001 for the second.

LLEKMGGSA (modifications not checked) [… (PSM, position 305, 9 amino acids)] and LAGTEQNFQL (modifications not checked) [… (PSM, position 83, 10 amino acids)] are the same in binding affinity ratio: 0.0001 for the first, 0.0001 for the second.

First: KVVHYRKWI (modifications not checked) [… (Kallikrein, position 245, 9 amino acids)]
Second: LARAASLSL (modifications not checked) [… (PAP, position 8, 9 amino acids)]
The binding affinity ratio of the first is lower: 0.0001 for the first, 0.0002 for the second.

Going from LLRLSEPAEL (modifications not checked) [… (PSA, position 119, 10 amino acids)] to LLHETDSAVA (modifications not checked) [… (PSM, position 4, 10 amino acids)], the binding affinity ratio rises from 0.0001 to 0.0006.

Going from LAKELKFVTL (modifications not checked) [… (PAP, position 31, 10 amino acids)] to KVTKFMLCA (modifications not checked) [… (PSA, position 187, 9 amino acids)], the binding affinity ratio rises from 0.0002 to 0.002.

LLRLSEPA (modifications not checked) [LLRLSEPA (PSA, position 119, 8 amino acids)] and LLRLSEPA (modifications not checked) [LLRLSEPA (Kallikrein, position 123, 8 amino acids)] are the same in binding affinity ratio: 0.0001 for the first, 0.0001 for the second.

Reference: patent publication US20070020327A1
